Assay results published in USRE40789 (BAYLOR COLLEGE OF MEDICINE, dated 2009).

Target: T1, GST-Dun1 (Saccharomyces cerevisiae, UniProt P39009 1-513)
T1 construct: Control GST fusion; The species is stated only in the background paragraph, not where the pull-down is told; not shown: glutathione S-transferase (GST) fusion partner
T1 sequence (looked up): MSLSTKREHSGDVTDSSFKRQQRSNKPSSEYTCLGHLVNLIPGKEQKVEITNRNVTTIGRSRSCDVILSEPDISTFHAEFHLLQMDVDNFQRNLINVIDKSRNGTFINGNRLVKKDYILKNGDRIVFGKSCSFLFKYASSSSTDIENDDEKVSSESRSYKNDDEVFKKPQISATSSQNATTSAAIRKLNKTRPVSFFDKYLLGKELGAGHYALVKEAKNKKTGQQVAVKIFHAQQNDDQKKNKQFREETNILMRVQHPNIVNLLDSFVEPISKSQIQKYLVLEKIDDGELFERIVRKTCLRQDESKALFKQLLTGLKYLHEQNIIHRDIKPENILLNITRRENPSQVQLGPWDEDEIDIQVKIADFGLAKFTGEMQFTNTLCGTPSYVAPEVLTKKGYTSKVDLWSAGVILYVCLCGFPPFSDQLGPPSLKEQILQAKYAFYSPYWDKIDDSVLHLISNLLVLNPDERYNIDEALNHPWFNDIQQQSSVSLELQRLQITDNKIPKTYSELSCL
Assay: GST pull-down on glutathione beads from baculovirus extracts, immunoblot with anti Chk1 antibodies

B1: His6-tagged hChk1 (enzyme)
chain: MAVPFVEDWDLVQTLGEGAYGEVQLAVNRVTEEAVAVKIVDMKRAVDCPENIKKEICINKMLNHENVVKFYGHRREGNIQYLFLEYCSGGELFDRIEPDIGMPEPDAQRFFHQLMAGVVYLHGIGITHRDIKPENLLLDERDNLKISDFGLATVFRYNNRERLLNKMCGTLPYVAPELLKRREFHAEPVDVWSCGIVLTAMLAGELPWDQPSDSCQEYSDWKEKKTYLNPWKKIDSAPLALLHKILVENPSARITIPDIKKDRWYNKPLKKGAKRPRVTSGGVSESPSGFSKHIQSNLDFSPVNSASSEENVKYSSSQPEPRTGLSLWDTSPSYIDKLVQGISFSQPTCPDHMLLNSQLLGTPGSSQNPWQRLVKRMTRFFTKLDADKSYQCLKETCEKLGYQWKKSCMNQVTISTTDRRNNKLIFKVNLLEMDDKILVDFRLSKGDGLEFKRHFLKIKGKLIDIVSSQKVWLPATHHHHHH
notes: Expressed in baculovirus; used as a crude baculovirus extract in the pull-down and purified in the kinase assay; also called hChk1-His6; His6-tagged hChk1 derivative
binding result: no binding
